Experimental data published in publication PMC11286949, “Structural basis of tRNA recognition by the widespread OB fold”.
Where a chain is given by its changes, count along the chain named.

Key:
Assay in all cases: ITC; ITC (Arc1p): 25 mM Tris-HCl pH 7.4, 150 mM NaCl, 2 mM MgCl2, 25 °C. FP and competition FP: 25 mM Tris-HCl pH 7.5, 150 mM NaCl (Arc1p) or 50 mM NaCl (Trbp111), 2 mM MgCl2, room temperature
Details in all cases: protein: recombinant; tags: His-MBP removed; tRNA fold
[1] = molecular target: T1, Arc1p dNdM1 (Saccharomyces cerevisiae, UniProt P46672 166-376)
T1 sequence: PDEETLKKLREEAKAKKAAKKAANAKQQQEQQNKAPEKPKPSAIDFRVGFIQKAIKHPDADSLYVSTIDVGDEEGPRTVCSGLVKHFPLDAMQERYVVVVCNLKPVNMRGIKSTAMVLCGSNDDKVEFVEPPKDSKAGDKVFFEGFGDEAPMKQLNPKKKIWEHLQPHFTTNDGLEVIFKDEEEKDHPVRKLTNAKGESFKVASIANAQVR

[2] = molecular target: T2, Arc1p dN S278A (Saccharomyces cerevisiae, UniProt P46672 132-376, S278A;del1-131)
T2 sequence: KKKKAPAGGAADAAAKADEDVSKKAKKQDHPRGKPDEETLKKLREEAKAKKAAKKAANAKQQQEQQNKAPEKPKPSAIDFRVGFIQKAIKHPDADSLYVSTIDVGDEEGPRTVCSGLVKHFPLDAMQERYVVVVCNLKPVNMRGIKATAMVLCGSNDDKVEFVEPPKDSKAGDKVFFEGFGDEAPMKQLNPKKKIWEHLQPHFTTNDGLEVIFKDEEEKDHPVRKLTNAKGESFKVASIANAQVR

[3] = molecular target: T3, Arc1p dN K269A (Saccharomyces cerevisiae, UniProt P46672 132-376, K269A;del1-131)
T3 sequence: T2 sequence with K138A, A147S

[4] = molecular target: T4, Arc1p dN (Saccharomyces cerevisiae, UniProt P46672 132-376, del1-131)
T4 sequence: T2 sequence with A147S

[5] = molecular target: T5, Arc1p (Saccharomyces cerevisiae, UniProt P46672 1-376)
T5 sequence: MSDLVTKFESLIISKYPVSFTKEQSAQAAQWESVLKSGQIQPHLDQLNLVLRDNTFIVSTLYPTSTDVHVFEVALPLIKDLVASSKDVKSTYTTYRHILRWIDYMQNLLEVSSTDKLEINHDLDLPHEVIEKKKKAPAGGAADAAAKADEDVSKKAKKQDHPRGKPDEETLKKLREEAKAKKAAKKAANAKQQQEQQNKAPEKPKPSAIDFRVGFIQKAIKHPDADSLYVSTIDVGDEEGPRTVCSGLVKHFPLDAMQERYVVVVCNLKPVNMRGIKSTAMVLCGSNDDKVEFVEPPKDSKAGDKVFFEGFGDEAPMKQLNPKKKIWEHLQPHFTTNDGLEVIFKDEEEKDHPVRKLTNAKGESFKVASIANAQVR

B1: tRNAIle WT (structured_RNA)
RNA: AGGCUUGUAGCUCAGGUGGUUAGAGCGCACCCCUGAUAAGGGUGAGGUCGGUGGUUCAAGUCCACUCAGGCCUACCA
Binder B1 has a Kd [1] of 2550 ± 456 nM, a Kd [2] of 845 ± 149 nM and a Kd [3] of 1500 ± 55 nM. For the same binder, the Kd [4] was 321 ± 101 nM and the Kd [5] was 1280 ± 130 nM.
